Series [1] deals with HeLa Kyoto. As to the kind of experiment: solubility in G1/S (NP-40 vs SDS abundance) (log2 ratio); higher = more soluble. As to conditions: cell cycle stage: G1/S.
Series [2] deals with HeLa Kyoto. As to the kind of experiment: melting temperature (median over replicates), in situ; higher = more thermally stable.
Series [3] has as its system HeLa Kyoto. As to the kind of experiment: thermal stability score vs G1/S (z-score of summed log2 fold changes over temperatures); higher = more thermally stable than in G1/S.
The subject of series [4] is HeLa Kyoto. As to the kind of experiment: solubility change mitosis vs G1/S (difference of NP-40 vs SDS log2 ratios) (log2 ratio difference); higher = more soluble in mitosis.
The mark [5] stands for this setting: cell cycle stage: early G1 (4.5 h after nocodazole release).
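For melting temperature (median over replicates), in situ in this document: HeLa Kyoto cells synchronized by double thymidine or nocodazole block, proteins quantified by TMT10plex mass spectrometry, three independent biological replicates.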
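For solubility change mitosis vs G1/S (difference of NP-40 vs SDS log2 ratios) in this document: synchronized HeLa Kyoto cells (double thymidine block for G1/S, nocodazole release for mitosis), protein amounts in NP-40 versus SDS lysates quantified by mass spectrometry, three biological replicates.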
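For solubility in G1/S (NP-40 vs SDS abundance) in this document: HeLa Kyoto cells arrested at G1/S by double thymidine block, proteins quantified by TMT10plex mass spectrometry in mild NP-40 versus SDS extracts, three biological replicates.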
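For thermal stability score vs G1/S (z-score of summed log2 fold changes over temperatures) in this document: synchronized HeLa Kyoto cells, proteins quantified by TMT10plex mass spectrometry, three biological replicates, mitosis taken 0.5 h after nocodazole release, G1/S directly after double thymidine block.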

Turning to “MGDMKTPDFDDLLAAFDIPDIDANEAIHSGPEENEGPGGPGKPEPGVGSESEDTAAASAGDGPGVPAQASDHGLPPPDISVVSVIVKNTVCPEQSEALAGGSAGDGAQAAGVTKEGPVGPHRMQNGFGSPEPSLPGTPHSPAPPSGGTWKEKGMEGKTPLDLFAHFGPEPGDHSDPLPPSAPSPTREGALTPPPFPSSFELAQENGPGMQPPVSSPPLGALKQESCSPHHPQVLAQQGSGSSPKATDIPASASPPPVAGVPFFKQSPGHQSPLASPKVPVCQPLKEEDDDEGPVDKSSPGSPQSPSSGAEAADEDSNDSPASSSSRPLKVRIKTIKTSCGNITRTVTQVPSDPDPPAPLAEGAFLAEASLLKLSPATPTSEGPKVVSVQLGDGTRLKGTVLPVATIQNASTAMLMAASVARKAVVLPGGTATSPKMIAKNVLGLVPQALPKADGRAGLGTGGQKVNGASVVMVQPSKTATGPSTGGGTVISRTQSSLVEAFNKILNSKNLLPAYRPNLSPPAEAGLALPPTGYRCLECGDAFSLEKSLARHYDRRSMRIEVTCNHCARRLVFFNKCSLLLHAREHKDKGLVMQCSHLVMRPVALDQMVGQPDITPLLPVAVPPVSGPLALPALGKGEGAITSSAITTVAAEAPVLPLSTEPPAAPATSAYTCFRCLECKEQCRDKAGMAAHFQQLGPPAPGATSNVCPTCPMMLPNRCSFSAHQRMHKNRPPHVCPECGGNFLQANFQTHLREACLHVSRRVGYRCPSCSVVFGGVNSIKSHIQTSHCEVFHKCPICPMAFKSGPSAHAHLYSQHPSFQTQQAKLIYKCAMCDTVFTHKPLLSSHFDQHLLPQRVSVFKCPSCPLLFAQKRTMLEHLKNTHQSGRLEETAGKGAGGALLTPKTEPEELAVSQGGAAPATEESSSSSEEEEVPSSPEPPRPAKRPRRELGSKGLKGGGGGPGGWTCGLCHSWFPERDEYVAHMKKEHGKSVKKFPCRLCERSFCSAPSLRRHVRVNHEGIKRVYPCRYCTEGKRTFSSRLILEKHVQVRHGLQLGAQSPGRGTTLARGSSARAQGPGRKRRQSSDSCSEEPDSTTPPAKSPRGGPGSGGHGPLRYRSSSSTEQSLMMGLRVEDGAQQCLDCGLCFASPGSLSRHRFISHKKRRGVGKASALGLGDGEEEAPPSRSDPDGGDSPLPASGGPLTCKVCGKSCDSPLNLKTHFRTHGMAFIRARQGAVGDN [ZNF687]”, the “solubility in G1/S (log2)” value in series [1] was -0.224. Besides, the melting temperature in series [2] (cell cycle stage: G1/S) was 49 °C; in series [2] (cell cycle stage: mitosis), 50.3 °C. In addition, the figures for the thermal stability score in series [3] (setting [5]) and in series [3] (cell cycle stage: mitosis) were 0.612 and 1.77, respectively. Further, the “solubility change mitosis (log2)” value in series [4] was determined as 0.08.

Take “MGDPERPEAAGLDQDERSSSDTNESEIKSNEEPLLRKSSRRFVIFPIQYPDIWKMYKQAQASFWTAEEVDLSKDLPHWNKLKADEKYFISHILAFFAASDGIVNENLVERFSQEVQVPEARCFYGFQILIENVHSEMYSLLIDTYIRDPKKREFLFNAIETMPYVKKKADWALRWIADRKSTFGERVVAFAAVEGVFFSGSFAAIFWLKKRGLMPGLTFSNELISRDEGLHCDFACLMFQYLVNKPSEERVREIIVDAVKIEQEFLTEALPVGLIGMNCILMKQYIEFVADRLLVELGFSKVFQAENPFDFMENISLEGKTNFFEKRVSEYQRFAVMAETTDNVFTLDADF [RRM2B]”: in series [1], the “solubility in G1/S (log2)” value is 0.00384. Also, the melting temperature in series [2] (cell cycle stage: G1/S) turned out to be 56.5 °C; in series [2] (cell cycle stage: mitosis), 54.2 °C. The results for the thermal stability score in series [3] (setting [5]) and in series [3] (cell cycle stage: mitosis) were -1.2 and 0.292, respectively. Also, the “solubility change mitosis (log2)” value in series [4] was -0.132.

“MGDPSKQDILTIFKRLRSVPTNKVCFDCGAKNPSWASITYGVFLCIDCSGSHRSLGVHLSFIRSTELDSNWSWFQLRCMQVGGNASASSFFHQHGCSTNDTNAKYNSRAAQLYREKIKSLASQATRKHGTDLWLDSCVVPPLSPPPKEEDFFASHVSPEVSDTAWASAIAEPSSLTSRPVETTLENNEGGQEQGPSVEGLNVPTKATLEVSSIIKKKPNQAKKGLGAKKGSLGAQKLANTCFNEIEKQAQAADKMKEQEDLAKVVSKEESIVSSLRLAYKDLEIQMKKDEKMNISGKKNVDSDRLGMGFGNCRSVISHSVTSDMQTIEQESPIMAKPRKKYNDDSDDSYFTSSSSYFDEPVELRSSSFSSWDDSSDSYWKKETSKDTETVLKTTGYSDRPTARRKPDYEPVENTDEAQKKFGNVKAISSDMYFGRQSQADYETRARLERLSASSSISSADLFEEPRKQPAGNYSLSSVLPNAPDMAQFKQGVRSVAGKLSVFANGVVTSIQDRYGS [ARFGAP3]”: in series [1], the “solubility in G1/S (log2)” value came out at 0.135. The results for the melting temperature in series [2] (cell cycle stage: G1/S) and in series [2] (cell cycle stage: mitosis) were 51.3 °C and 51.4 °C, respectively. Moreover, the thermal stability score is -0.314 in series [3] (setting [5]) and 0.332 in series [3] (cell cycle stage: mitosis). Moreover, the “solubility change mitosis (log2)” value in series [4] is -0.125.

As to “MGDVLSTHLDDARRQHIAEKTGKILTEFLQFYEDQYGVALFNSMRHEIEGTGLPQAQLLWRKVPLDERIVFSGNLFQHQEDSKKWRNRFSLVPHNYGLVLYENKAAYERQVPPRAVINSAGYKILTSVDQYLELIGNSLPGTTAKSGSAPILKCPTQFPLILWHPYARHYYFCMMTEAEQDKWQAVLQDCIRHCNNGIPEDSKVEGPAFTDAIRMYRQSKELYGTWEMLCGNEVQILSNLVMEELGPELKAELGPRLKGKPQERQRQWIQISDAVYHMVYEQAKARFEEVLSKVQQVQPAMQAVIRTDMDQIITSKEHLASKIRAFILPKAEVCVRNHVQPYIPSILEALMVPTSQGFTEVRDVFFKEVTDMNLNVINEGGIDKLGEYMEKLSRLAYHPLKMQSCYEKMESLRLDGLQQRFDVSSTSVFKQRAQIHMREQMDNAVYTFETLLHQELGKGPTKEELCKSIQRVLERVLKKYDYDSSSVRKRFFREALLQISIPFLLKKLAPTCKSELPRFQELIFEDFARFILVENTYEEVVLQTVMKDILQAVKEAAVQRKHNLYRDSMVMHNSDPNLHLLAEGAPIDWGEEYSNSGGGGSPSPSTPESATLSEKRRRAKQVVSVVQDEEVGLPFEASPESPPPASPDGVTEIRGLLAQGLRPESPPPAGPLLNGAPAGESPQPKAAPEASSPPASPLQHLLPGKAVDLGPPKPSDQETGEQVSSPSSHPALHTTTEDSAGVQTEF [FAM129B]”, the “solubility in G1/S (log2)” value in series [1] was determined as 0.283. Further, the melting temperature in series [2] (cell cycle stage: G1/S) was found to be 51.6 °C; in series [2] (cell cycle stage: mitosis) it was 51.2 °C. The thermal stability score in series [3] (setting [5]) was -0.711; in series [3] (cell cycle stage: mitosis) it was 2.24. Further, in series [4], the “solubility change mitosis (log2)” value was -0.0461.

As to “MGEFNEKKTTCGTVCLKYLLFTYNCCFWLAGLAVMAVGIWTLALKSDYISLLASGTYLATAYILVVAGTVVMVTGVLGCCATFKERRNLLRLYFILLLIIFLLEIIAGILAYAYYQQLNTELKENLKDTMTKRYHQPGHEAVTSAVDQLQQEFHCCGSNNSQDWRDSEWIRSQEAGGRVVPDSCCKTVVALCGQRDHASNIYKVEGGCITKLETFIQEHLRVIGAVGIGIACVQVFGMIFTCCLYRSLKLEHY [CD151]”, in series [1], the “solubility in G1/S (log2)” value was -0.288. In addition, the melting temperature is 60 °C in series [2] (cell cycle stage: G1/S) and 61.3 °C in series [2] (cell cycle stage: mitosis). In addition, the thermal stability score is 0.401 in series [3] (setting [5]) and -1.63 in series [3] (cell cycle stage: mitosis). For the same sequence, the “solubility change mitosis (log2)” value in series [4] was determined as 0.0099.

In the case of “MGEKSENCGVPEDLLNGLKVTDTQEAECAGPPVPDPKNQHSQSKLLRDDEAHLQEDQGEEECFHDCSASFEEEPGADKVENKSNEDVNSSELDEEYLIELEKNMSDEEKQKRREESTRLKEEGNEQFKKGDYIEAESSYSRALEMCPSCFQKERSILFSNRAAARMKQDKKEMAINDCSKAIQLNPSYIRAILRRAELYEKTDKLDEALEDYKSILEKDPSIHQAREACMRLPKQIEERNERLKEEMLGKLKDLGNLVLRPFGLSTENFQIKQDSSTGSYSINFVQNPNNNR [TTC1]”, the “solubility in G1/S (log2)” value in series [1] was found to be 0.455. Moreover, the melting temperature stood at 56.2 °C in series [2] (cell cycle stage: G1/S) and 56.4 °C in series [2] (cell cycle stage: mitosis). The thermal stability score in series [3] (setting [5]) was -3; in series [3] (cell cycle stage: mitosis), -2.41. In addition, the “solubility change mitosis (log2)” value in series [4] came out at 0.183.

Values taken from the supplement of paper PMC5998384.
